The text below walks through data of paper PMC11316097 (Nature Communications, 2024).

This experiment has as its target T1, bovine cyclin A2 residues 169-430 (bovine, UniProt P30274 169-430).
T1 construct: cyclin A2, bovine, residues 169-430 of UniProt P30274 (equivalent to human cyclin A residues 171-432, UniProt P20248)
The experiment is described as follows: cryo-EM structure; purified pY15pT160CDK2, cyclin A and CDC25A(C431S) mixed 1:1.5:2, 1 hr on ice, gel filtration (Superdex S200) in 40 mM HEPES, 200 mM NaCl, 1 mM DTT, pH 7.4; grids with CHAPS; 2.7 Å. The note with it: both partners purified. (In general: In gel filtration, larger molecules generally elute earlier.)

T1 sequence (P30274 169-430): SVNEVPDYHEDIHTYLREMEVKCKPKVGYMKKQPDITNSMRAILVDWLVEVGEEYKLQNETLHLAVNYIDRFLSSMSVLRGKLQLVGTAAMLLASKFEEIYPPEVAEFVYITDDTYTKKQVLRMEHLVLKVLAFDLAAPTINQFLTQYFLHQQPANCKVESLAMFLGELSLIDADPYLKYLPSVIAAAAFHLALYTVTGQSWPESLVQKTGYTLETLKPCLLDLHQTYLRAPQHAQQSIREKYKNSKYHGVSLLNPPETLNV

B1: human CDC25A residues 335-524 (catalytic domain and C-terminal tail), Cys431Ser (domain or fragment, UniProt P30304 335-524, looked up)
chain: RDLIGDFSKGYLFHTVAGKHQDLKYISPEIMASVLNGKFANLIKEFVIIDCRYPYEYEGGHIKGAVNLHMEEEVEDFLLKKPIVPTDGKRVIVVFHSEFSSERGPRMCRYVRERDRLGNEYPKLHYPELYVLKGGYKEFFMKCQSYCEPPSYRPMHHEDFKEDLKKFRTKSRTWAGEKSKREMYSRLKKL
notes: Form used for cryo-EM and HDX-MS; also called CDC25A(C431S); CDC25A(Cys431Ser)
As for B1, the binding result was “binds”.
